Measured values taken from article PMC8727931.

B1: His-tagged GABARAP [not stated] / GST-FAM134B [not stated] (parent)
chain 1: MKFVYKEEHPFEKRRSEGEKIRKKYPDRVPVIVEKAPKARIGDLDKKKYLVPSDLTVGQFYFLIRKRIHLRAEDALFFFVNNVIPPTSATMGQLYQEHHEEDFFLYIAYSDESVYGL
chain 2: EGDDFELLDQSELDQIESELGLTQDQ

Variants of: B1
Assay: competitive GST pull-down (gel band quantification)
Conditions: with GST-FAM134B; competition with MBP-LC3A K65F in the same reaction; n = 3; read off a plot

Row | ratio to parent | Variant
1 | 1.05 | chain 1 F62K

Same assay, conditions: with GST-FAM134B; competition with MBP-LC3A H27Y in the same reaction; n = 3; read off a plot

Row | ratio to parent | Variant
2 | 0.89 | chain 1 Y25H

Same assay, conditions: with GST-FAM134B; competition with MBP-LC3A H57D in the same reaction; n = 3; read off a plot

Row | ratio to parent | Variant
3 | 1.05 | chain 1 D54H

Same assay, conditions: with GST-FAM134B; competition with MBP-LC3A K30R in the same reaction; n = 3; read off a plot

Row | ratio to parent | Variant
4 | 0.87 | chain 1 R28K
